The values that follow come from article PMC6534540.

Bounds are passed on as bounds.

This assay has as its target N-term biotinylated candidalysin (Candida albicans). Description: SPR; Biacore T100; N-term biotinylated candidalysin captured (up to 1000 RU) on neutravidin coupled to a CM5 chip, free sites blocked with PEG-biotin; EGFR domains injected at 250, 500, 1000 and 2000 nM at 10 µL/min; HBS-EP buffer (10 mM HEPES pH 7.4, 150 mM NaCl, 3 mM EDTA, 0.005% Surfactant P20); 25 °C; neutravidin-only reference cell. For orientation: SPR reads the build-up and loss of mass on a sensor chip optically.

Sequence of N-term biotinylated candidalysin (Candida albicans) (Q07730 62-92): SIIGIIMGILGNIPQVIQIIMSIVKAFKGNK

“EGFR transmembrane portion (domain or fragment)” displayed an SPR signal response of under 50 RU.
